Like-named read-outs stand apart in the source and are kept apart here.
Columns and labels:
[1] = Stability test in PBS (iTLC); format: physicochemical; conditions: 37 °C, up to 7 days, ~5 MBq in 250 µL added to 4.75 mL, iTLC-SG, 0.5 M citrate pH 5.5, gamma counter
Method: Radiolabeling was performed by adding up to 200 MBq of the ^153Sm radiolabeling solution to 20 nmol of the DOTA-TATE precursor dissolved in 0.15 M NaOAc buffer (pH 4.7) in a total reaction volume of 1 mL. The reaction vial was placed in a Thermomixer C (Eppendorf) to stir (500 rpm) and the mixture was heated to 95 °C for 15 min. After incubation, the radiolabeling yield was evaluated using thin-layer chromatography. An amount of 1–2 µL of the reaction mixture was spotted on a glass microfiber chromatography paper strip impregnated with silica gel (iTLC-SG, Agilent Technologies, Diegem, Belgium) that was eluted with a 0.5 M citrate solution (pH 5.5). After elution, the TLC papers were cut in half and the activity of the bottom and top part of the TLC paper was counted for 2 min each using an automated gamma counter.
After 1 h, 3 days, 5 days and 7 days, a 5 µL sample was spotted on the TLC system described above to identify the intact fraction.

CA20948 cells = assay: MTS viability assay; format: cell-based, rat; conditions: 4 h treatment, MTS after 4 days, relative to untreated cells, mean ± SD
Method: Rat pancreatic cancer cell line CA20948 was used given the somatostatin receptor 2 (SSTR2) overexpression as it is found in many human neuroendocrine tumors. Cells were grown in DMEM High Glucose and Pyruvate medium (Gibco 41966029) supplemented with 10% fetal bovine serum (Gibco 10270106) and 100 U/mL penicillin-streptomycin (Sigma-Aldrich P4333) and were maintained in a humidified incubator at 37 °C with 5% CO2 supply. All in vitro results were obtained from a minimum of three replicates per condition.
A total of 10,000 cells were seeded per well into a 96-well plate (31,250 cells/cm²). […] After 4 h incubation at 37 °C in 5% CO2, cells were washed and new medium was added. Then, after 4 days, MTS reagent was prepared according to the manufacturer’s instructions and added to the cells. Absorbance was measured at 490 nm using the BioTek Synergy H1 reader (Agilent). Cell viability was obtained as the ratio of the absorbance of a sample well to the average absorbance of untreated (0 MBq/mL) wells, after subtraction of the background signal of wells containing MTS reagent without cells. Statistical significance (p < 0.05) was determined using linear models.

[2] = Ex vivo biodistribution in CA20948 xenograft mice; conditions: mouse, iv
Method: Quantification of activity was performed with an automated gamma counter equipped with a 3-in NaI(Tl) detector coupled to a multichannel analyzer (2480 Wizard^2, Perkin Elmer, Zaventem, Belgium). The results were corrected for background signal, physical decay during counting and detector dead time.
Male NMRI nude mice (between 8 and 15 weeks old) were anesthetized with 2.5% isoflurane in O2 at a flow rate of 0.2 L min^−1 and subcutaneously injected on the right shoulder with 1 × 10^6 CA20948 cells resuspended in PBS with 30% matrigel®. Tumor dimensions were measured two or three times per week and volume was calculated as length × width × height. Mice were sacrificed if the tumor volume exceeded 600 mm^3 or if more than 10% of the original body weight was lost.
Additionally, similar biodistribution studies were performed with free (unlabeled) [^153Sm]SmCl3 to identify the organs with ^153Sm accumulation in case of release from the complex. […] The mice were sacrificed by an overdose pentobarbital (200 µL of 60 mg/mL) 1, 4, 24 and 72 h post-injection (p.i.) (n = 3–4 per time point). Blood was collected via cardiac puncture. Organs of interest were collected in tared tubes and weighed. The activity in the different organs was measured in the gamma counter. For the calculation of the total activity in the blood, bone and muscle, the masses were assumed to be, respectively, 7, 12 and 40% of the total body mass. Data were expressed as a percentage of injected activity (%IA) and standardized uptake value (SUV). %IA was calculated as (counts per min (cpm) in organ)/(IA converted to cpm) × 100. SUV was calculated as (activity in cpm in organ/weight of organ in g)/(IA/total body weight in g).

[3] = male, NMRI nude, bone, total radioactivity, read-out: Bone SUV
[4] = male, NMRI nude, in vivo, total radioactivity, read-out: Excreted %IA
[5] = male, NMRI nude, intestines, total radioactivity, read-out: Intestines %IA
[6] = male, NMRI nude, kidneys, total radioactivity, read-out: Kidneys %IA
[7] = male, NMRI nude, liver, total radioactivity, read-out: Liver %IA
[8] = male, NMRI nude, muscle, total radioactivity, read-out: Muscle %IA
[9] = male, NMRI nude, pancreas, total radioactivity, read-out: Pancreas %IA
[10] = male, NMRI nude, pancreas, total radioactivity, read-out: Pancreas SUV
[11] = male, NMRI nude, spleen, total radioactivity, read-out: Spleen SUV
[12] = male, NMRI nude, stomach, total radioactivity, read-out: Stomach %IA
[13] = male, NMRI nude, tumor, total radioactivity, read-out: Tumor %IA

For `C[C@@H](O)[C@H](NC(=O)[C@@H]1CSSC[C@H](NC(=O)[C@@H](Cc2ccccc2)NC(=O)CN2CCN(CC(=O)O)CCN(CC(=O)O)CCN(CC(=O)O)CC2)C(=O)N[C@@H](Cc2ccc(O)cc2)C(=O)N[C@H](Cc2c[nH]c3ccccc23)C(=O)N[C@@H](CCCCN)C(=O)N[C@@H]([C@@H](C)O)C(=O)N1)C(=O)O` [[^153Sm]Sm-DOTA-TATE, metal not drawn], the “radiochemical purity (intact fraction)” value [1] was over 99%, the cell viability (CA20948 cells; 1.25 MBq/mL) was “significantly lowered viability” and the “cell viability, reduced down to” value (CA20948 cells; lowest viability over 0-10 MBq/mL) was 48 ± 6%. For the same compound, the SUV at 1 h ([2]; male, NMRI nude, blood, total radioactivity, read-out: Blood SUV) was 0.1 SUV, the tissue uptake dose at 4 h ([2]; male, NMRI nude, bone, total radioactivity, read-out: Bone %IA) was 0.5 ± 0.1 %ID and the SUV at 1 h [2, 3] was 0.1 SUV. The SUV at 4 h [2, 3] was 0.1 SUV, the tissue uptake dose at 1 h [2, 4] was 80 ± 4.4 %ID and the tissue uptake dose at 4 h [2, 4] was 83 ± 3.5 %ID. For the same compound, the tissue uptake dose at 24 h [2, 4] was 94.1 ± 3.6 %ID, the tissue uptake dose at 72 h [2, 4] was 96.6 ± 1.7 %ID and the tissue uptake dose at 4 h [2, 5] was 4.4 ± 1.5 %ID. The tissue uptake dose at 72 h [2, 5] was 0.1 %ID, the SUV at 72 h ([2]; male, NMRI nude, kidneys, total radioactivity) was 0.1 SUV and the tissue uptake dose at 4 h [2, 6] was 2.4 ± 0.6 %ID. The tissue uptake dose at 72 h [2, 6] was 0.1 %ID, the SUV at 24 h ([2]; male, NMRI nude, kidneys, total radioactivity, read-out: Kidneys SUV) was 0.3 ± 0.1 SUV and the tissue uptake dose at 1 h [2, 7] was 0.4 ± 0.1 %ID. It also gave a tissue uptake dose at 24 h [2, 7] of 0.1 %ID, an SUV at 1 h ([2]; male, NMRI nude, liver, total radioactivity, read-out: Liver SUV) of 0.1 SUV and a tissue uptake dose at 1 h ([2]; male, NMRI nude, lungs, total radioactivity, read-out: Lungs %IA) of 0.1 %ID. The SUV at 1 h ([2]; male, NMRI nude, lungs, total radioactivity, read-out: Lungs SUV) was 0.1 SUV, the tissue uptake dose at 1 h [2, 8] was 1 ± 0.4 %ID and the tissue uptake dose at 24 h [2, 8] was 0.1 %ID. The SUV at 4 h ([2]; male, NMRI nude, muscle, total radioactivity, read-out: Muscle SUV) was 0.1 SUV, the tissue uptake dose at 1 h [2, 9] was 1 ± 0.1 %ID and the tissue uptake dose at 4 h [2, 9] was 0.4 ± 0.3 %ID. The tissue uptake dose at 24 h [2, 9] was 0.1 %ID, the SUV at 4 h [2, 10] was 0.6 ± 0.4 SUV and the SUV at 24 h [2, 10] was 0.1 SUV. The SUV at 1 h [2, 11] was 0.1 SUV, the SUV at 4 h [2, 11] was 0.1 SUV and the tissue uptake dose at 1 h [2, 12] was 0.7 ± 0.1 %ID. The tissue uptake dose at 4 h [2, 12] was 1 ± 0.3 %ID, the tissue uptake dose at 72 h [2, 12] was 0.1 %ID and the tissue uptake dose at 4 h [2, 13] was 6.1 ± 3.7 %ID. For the same compound, the tissue uptake dose at 24 h [2, 13] was 3.2 ± 2.9 %ID, the tissue uptake dose at 72 h [2, 13] was 2.2 ± 1.6 %ID and the SUV at 4 h ([2]; male, NMRI nude, tumor, total radioactivity, read-out: Tumor SUV) was 4.4 ± 1.1 SUV. It also gave a tissue uptake dose at 4 h ([2]; male, NMRI nude, whole blood, total radioactivity, read-out: Blood %IA) of 0.1 %ID, a tissue uptake dose at 24 h ([2]; bone, total radioactivity, 24 h p.i., CA20948 tumor bearing male NMRI-nude mice, ~2-3 MBq i.v., mean ± SD, n = 3-4, read-out: Bone %IA) of 0.2 ± 0.1 %ID and a tissue uptake dose at 72 h ([2]; bone, total radioactivity, 72 h p.i., CA20948 tumor bearing male NMRI-nude mice, ~2-3 MBq i.v., mean ± SD, n = 3-4, read-out: Bone %IA) of 0.2 %ID. For the same compound, the “Blood %IA” value ([2]; in vivo) was 0.0 ± 0.0 %IA, the “Blood SUV” value ([2]; in vivo) was 0.0 ± 0.0 and the “Bone %IA” value ([2]; in vivo) was 0.4 ± 0.0 %IA. The “Bone SUV” value ([2]; in vivo) was 0.0 ± 0.0, the “Brain %IA” value ([2]; in vivo) was 0.0 ± 0.0 %IA and the “Brain SUV” value ([2]; in vivo) was 0.0 ± 0.0. For the same compound, the “Heart %IA” value ([2]; in vivo) was 0.0 ± 0.0 %IA, the “Heart SUV” value ([2]; in vivo) was 0.0 ± 0.0 and the “Liver SUV” value ([2]; in vivo) was 0.0 ± 0.0. For the same compound, the “Lungs %IA” value ([2]; in vivo) was 0.0 ± 0.0 %IA, the “Lungs SUV” value ([2]; in vivo) was 0.0 ± 0.0 and the “Muscle %IA” value ([2]; in vivo) was 0.0 ± 0.0 %IA. For the same compound, the “Muscle SUV” value ([2]; in vivo) was 0.0 ± 0.0, the “Pancreas %IA” value ([2]; in vivo) was 0.0 ± 0.0 %IA and the “Pancreas SUV” value ([2]; in vivo) was 0.0 ± 0.0. For the same compound, the “Spleen %IA” value ([2]; in vivo) was 0.0 ± 0.0 %IA, the “Spleen SUV” value ([2]; in vivo) was 0.0 ± 0.0 and the tissue uptake dose at 1 h ([2]; intestines, total radioactivity, 1 h p.i., CA20948 tumor bearing male NMRI-nude mice, ~2-3 MBq i.v., mean ± SD, n = 3-4, read-out: Intestines %IA) was 2 ± 0.3 %ID. For the same compound, the tissue uptake dose at 24 h ([2]; intestines, total radioactivity, 24 h p.i., CA20948 tumor bearing male NMRI-nude mice, ~2-3 MBq i.v., mean ± SD, n = 3-4, read-out: Intestines %IA) was 0.6 ± 0.2 %ID, the tissue uptake dose at 1 h ([2]; total radioactivity, 1 h p.i., CA20948 tumor bearing male NMRI-nude mice, ~2-3 MBq i.v., mean ± SD, n = 3-4, read-out: Tumor %IA) was 3.7 ± 2 %ID and the tissue uptake dose at 24 h ([2]; kidneys, total radioactivity, 24 h p.i., CA20948 tumor bearing male NMRI-nude mice, ~2-3 MBq i.v., mean ± SD, n = 3-4, read-out: Kidneys %IA) was 0.5 ± 0.2 %ID. For the same compound, the tissue uptake dose at 4 h ([2]; liver, total radioactivity, 4 h p.i., CA20948 tumor bearing male NMRI-nude mice, ~2-3 MBq i.v., mean ± SD, n = 3-4, read-out: Liver %IA) was 0.2 %ID, the tissue uptake dose at 72 h ([2]; liver, total radioactivity, 72 h p.i., CA20948 tumor bearing male NMRI-nude mice, ~2-3 MBq i.v., mean ± SD, n = 3-4, read-out: Liver %IA) was 0.2 %ID and the SUV at 1 h ([2]; muscle, total radioactivity, 1 h p.i., CA20948 tumor bearing male NMRI-nude mice, ~2-3 MBq i.v., mean ± SD, n = 3-4, read-out: Muscle SUV) was 0.2 ± 0.1 SUV. The tissue uptake dose at 4 h ([2]; muscle, total radioactivity, 4 h p.i., CA20948 tumor bearing male NMRI-nude mice, ~2-3 MBq i.v., mean ± SD, n = 3-4, read-out: Muscle %IA) was 0.4 ± 0.2 %ID, the SUV at 1 h ([2]; pancreas, total radioactivity, 1 h p.i., CA20948 tumor bearing male NMRI-nude mice, ~2-3 MBq i.v., mean ± SD, n = 3-4, read-out: Pancreas SUV) was 1.2 ± 0.2 SUV and the tissue uptake dose at 24 h ([2]; stomach, total radioactivity, 24 h p.i., CA20948 tumor bearing male NMRI-nude mice, ~2-3 MBq i.v., mean ± SD, n = 3-4, read-out: Stomach %IA) was 0.3 ± 0.2 %ID. The tissue uptake dose at 1 h ([2]; whole blood, total radioactivity, 1 h p.i., CA20948 tumor bearing male NMRI-nude mice, ~2-3 MBq i.v., mean ± SD, n = 3-4, read-out: Blood %IA) was 0.7 ± 0.2 %ID and the time without leaching of 153Sm from the chelator was over 7 days.

Source: article PMC9785812 (Pharmaceutics, 2022)
